According to paper PMC3119452 (Structure (London, England : 1993), 2010):
Where “and” joins values, the source holds several entries; their conditions need not be identical. Equal values may be shown once. Read-outs that look alike come from different tables or passages of the source. Values belong to the molecule of their own block, whether it stands above or below them.

What was measured:
[1] = target: full-length HYL1 (Arabidopsis HYPONASTIC LEAVES1) (Arabidopsis) (UniProt O04492); assay: SEC
[2] = target: full-length HYL1 (Arabidopsis HYPONASTIC LEAVES1) (Arabidopsis) (UniProt O04492); assay: SEC; remark: listed apart in the source
crystal structure = target: the molecule itself; assay: crystal structure
GST-HYL1 fusion protein = target: T1, GST-HYL1 fusion protein (Arabidopsis, UniProt O04492 1-419); assay: pull-down
T1 sequence (looked up): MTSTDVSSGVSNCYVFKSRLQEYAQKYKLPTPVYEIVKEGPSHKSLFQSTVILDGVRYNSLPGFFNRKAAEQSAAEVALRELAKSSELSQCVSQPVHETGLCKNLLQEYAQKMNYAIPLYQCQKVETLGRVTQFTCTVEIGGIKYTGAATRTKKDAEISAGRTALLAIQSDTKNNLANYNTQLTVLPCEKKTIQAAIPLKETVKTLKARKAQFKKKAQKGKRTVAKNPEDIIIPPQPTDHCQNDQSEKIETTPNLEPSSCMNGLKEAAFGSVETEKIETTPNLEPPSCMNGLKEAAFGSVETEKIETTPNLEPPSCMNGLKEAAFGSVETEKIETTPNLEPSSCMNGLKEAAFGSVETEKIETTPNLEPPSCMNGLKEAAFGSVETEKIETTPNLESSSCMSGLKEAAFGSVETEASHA

stoichiometry N [1]: 8 and 10 | percent of the monomer peak shifted to the 110 kDa peak [2]: 90% | stoichiometry N [2]: 2
Molecule: full-length HYL1 (Arabidopsis HYPONASTIC LEAVES1) (from UniProt O04492 1-419) (natural protein)

B1: HYL1 dsRBD2 (HR2; residues 100-172) (domain or fragment, Arabidopsis, UniProt O04492 100-172, looked up)
chain: GLCKNLLQEYAQKMNYAIPLYQCQKVETLGRVTQFTCTVEIGGIKYTGAATRTKKDAEISAGRTALLAIQSDT
binding result (crystal structure): binds

binding result (GST-HYL1 fusion protein): binds
B2: HR2 (residues 101-171) used in the pull-down (domain or fragment, Arabidopsis, UniProt O04492 101-171, looked up)
chain: LCKNLLQEYAQKMNYAIPLYQCQKVETLGRVTQFTCTVEIGGIKYTGAATRTKKDAEISAGRTALLAIQSD

binding result (GST-HYL1 fusion protein): binds
B3: HYL1 dsRBD1+2 (HR1+2; residues 15-172) (domain or fragment, Arabidopsis, UniProt O04492 15-172, looked up)
chain: VFKSRLQEYAQKYKLPTPVYEIVKEGPSHKSLFQSTVILDGVRYNSLPGFFNRKAAEQSAAEVALRELAKSSELSQCVSQPVHETGLCKNLLQEYAQKMNYAIPLYQCQKVETLGRVTQFTCTVEIGGIKYTGAATRTKKDAEISAGRTALLAIQSDT
